From WO2002045743A2

Tests used:
[1] = biological target: MH2 peptide (Hepatitis C virus); test: peptide EIA, Nunc-Immuno and CovaLab plates
[2] = biological target: MH2 peptide (Hepatitis C virus); test: peptide EIA (Table 4)
[3] = biological target: MH2 peptide (Hepatitis C virus); test: IAsys biosensor, BSA-HVR1 peptide conjugate

B1: mAb 15H4 (antibody)
chain 1: QVQLQQSGAELARPGASVKLSCKASGYTFTRYWMQWVKQKPGQGLEWIGAIYCGDGDTRFTQKFKGKATLTADKSSSTAYMQLSNLASEDSAVYYCVIYGNYYDAMDYWGQGTSVTVSS
chain 2: DIVMTQAPLSMPVSLGDQASISGRSSQSLVHSNGNTYLHWYLQKPGQSPKLLIHKVSKRFSGVPDRFSGSGSGTDFTLKIRRVEAEDLGVYFCSQNTHVPFTFGGGTK
Which EIA Sample/Cutoff ratio (S/CO) [1] does the source give for B1 here?
Its EIA Sample/Cutoff ratio (S/CO) is 18.1 S/CO.

And the EIA Sample/Cutoff ratio (S/CO) [2]?
Its EIA Sample/Cutoff ratio (S/CO) is 13.6 S/CO.

What about the Kd [3] of the same binder?
Its Kd is 21.5 nM.

B2: mAb 2P24 (antibody)
chain 1: EFQLQQSGAELVRPGPLVTLSCKASGFNIKDYYMNWVKQRPEQGLEWIGRIDPKNGNALYDPKFQDKARITADTSSNTAYLQLNSLTSEATAVYYCSSGWLDYWGQGTSLAVYS
chain 2: DIVMTQSPASLAVFRGQRATISYRASKSVSTSGYSYMHWNQQKPGQPPRLLIYLVSNLESGVPARFSGSGSGTDFTLNIHPVEEEDAATYYCQHIRELTAFGGGTK
B2 was tested. Which EIA Sample/Cutoff ratio (S/CO) [1] did it give?
The EIA Sample/Cutoff ratio (S/CO) was 24.9 S/CO.

What about the EIA Sample/Cutoff ratio (S/CO) [2] of the same binder?
Its EIA Sample/Cutoff ratio (S/CO) is 24.9 S/CO.

And the Kd [3]?
Its Kd is 5.85 nM.
